Source: the supplement of paper PMC9170038

System: MS2 coat protein
Assay: apparent KD of MS2 coat protein; designed switch direction (-1 OFF switch, 1 ON switch): -1; higher = weaker reporter binding
Method in brief: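 RNA switches sharing common flanks were transcribed by stalled E. coli RNA polymerase on Illumina chips. A doubling series of SNAP-549-labelled MS2 coat protein, from 0.7 or 1.5 nM to 3 µM, was applied in Tris-HCl pH 7.5 buffer with KCl, MgCl2, BSA, DTT, tRNA and Tween-20. Each step lasted 0.8–1.5 h at the bottom of the series and 10–20 min at the top. Normalised cluster fluorescence was curve-fitted, giving apparent KD as the per-design median over clusters.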

[1] = input ligand: microRNA oligo, concentration not stated
[2] = Eterna round: R95, input ligand: microRNA oligo, concentration not stated
[3] = Eterna round: R95, input ligand: FMN 200 uM
[4] = Eterna round: R95, input ligand: none

## GGUGUGGCAGGAUAUACAUCGAAGGGUGCAAAGGGCUCGGCACAUGAGGAUCACCCAUGUAGAAGGGCCUACCA [Beated] (Eterna round: R96, puzzle: Exclusion 2)
Input ligand: FMN 200 uM
  apparent KD of MS2 coat protein: 25.3 nM
[1]
  apparent KD of MS2 coat protein: 13.6 nM
Input ligand: none
  apparent KD of MS2 coat protein: 15.6 nM

## GGUUAUUGCAAGGAUAUGCUUUUUUGUGAAAUUGCAGAAGGUGCAACAUGAGGAUCACCCAUGUUGGAUGGGUU [JR_E6_Sub017] (puzzle: Exclusion 6)
[2]
  apparent KD of MS2 coat protein: 93.7 nM

## GGUUAUUGCAAGGAUAUGCUUUUUUUUGAAAUUGCAGAAGGUGCAACAUGAGGAUCACCCAUGUUGGAUGGGUU [JR_E6_Sub018] (Eterna round: R96, puzzle: Exclusion 6)
Input ligand: FMN 200 uM
  apparent KD of MS2 coat protein: 252 nM
[1]
  apparent KD of MS2 coat protein: 161 nM
Input ligand: none
  apparent KD of MS2 coat protein: 194 nM

## GGUUAUUGCAAGGAUAUGCUUUUUUUUGAAAUUGCAGAAGGUGCAACAUGAGGAUCACCCAUGUUGGAUGGGUU [JR_E6_Sub018] (puzzle: Exclusion 6)
[2]
  apparent KD of MS2 coat protein: 106 nM

## GGUUGCGCAGGAUAUACAUGAGGAUCACCCAUGUGAGAGAAAUAAGUGAGGAAGAAAAGUAGAAGGGCGUGACA [Mat - Exclusion 3 - Mod of Salish D75] (puzzle: Exclusion 3)
[3]
  apparent KD of MS2 coat protein: 175 nM
[2]
  apparent KD of MS2 coat protein: 45.3 nM
[4]
  apparent KD of MS2 coat protein: 58.9 nM

## GGUUGGCGAGGAUAUACAUGAGGAUCACCCAUGUGAGAAAUAAAAGUGAGGAAGAAAAGUAGAAGGCGCUGACG [Mat - Exclusion 3 - Mod of Salish D3] (puzzle: Exclusion 3)
[3]
  apparent KD of MS2 coat protein: 188 nM
[2]
  apparent KD of MS2 coat protein: 50.4 nM
[4]
  apparent KD of MS2 coat protein: 83.9 nM

## GGUUGGCGAGGAUAUACAUGAGGAUCACCCAUGUGAGAGAAAAAAGUGAGGAAGAAACGUAGAAGGCGCUGACG [salish99_ex3_r3_037] (puzzle: Exclusion 3)
[3]
  apparent KD of MS2 coat protein: 42.6 nM
[2]
  apparent KD of MS2 coat protein: 34.2 nM
[4]
  apparent KD of MS2 coat protein: 45.2 nM

## GUAAACGUAUAGGAUAUUUCAGGUCAAAGCUGCAAAGAAGGAUACACAUGAGGAUCACCCAUGUGGUCAAUAAA [Mod of Quesina 23 - Jieux - Exclusion 6] (Eterna round: R97, puzzle: Exclusion 6)
Input ligand: FMN 200 uM
  apparent KD of MS2 coat protein: 42.2 nM
Input ligand: none
  apparent KD of MS2 coat protein: 20.4 nM

## GUAAAUCAUGUAGGAUAUGCGUGGCGAAGCUAUGCAGAAGGACAUGAGGAUCACCCAUGUGCUUGCGUCCGCGUACGGAUGCAA [Mat - Exclusion NG 1 - Mod of JL - D70] (Eterna round: R96, puzzle: Exclusion NG 1)
Input ligand: FMN 200 uM
  apparent KD of MS2 coat protein: 292 nM
[1]
  apparent KD of MS2 coat protein: 124 nM
Input ligand: none
  apparent KD of MS2 coat protein: 237 nM

## GUAACAUGCUGGUGAUCAUACAUGAGGAUCACCCAUGUAACAAGCUUUUUGCUCGUCUUAAUUUAAUUGAUUACUAG [Stov1/8-A2] (Eterna round: R97, puzzle: Sensor, turn-off variant 1)
Input ligand: FMN 200 uM
  apparent KD of MS2 coat protein: 137 nM
Input ligand: none
  apparent KD of MS2 coat protein: 106 nM

## GUACCCAAAGGAUAUACUUGAGGAUCACCCAAGUAUGUCGCUUGGGCACGGUAAAGGAGUAGAAGGUUGGGAAG [Aedti] (Eterna round: R97, puzzle: Exclusion 3)
Input ligand: FMN 200 uM
  apparent KD of MS2 coat protein: 12.5 nM
Input ligand: none
  apparent KD of MS2 coat protein: 11.8 nM

## GUACUGAAGCUUUGCUUUAGUCGUACAUGAGGAUCACCCAUGUAGGAUAUGGUAGGCUUUGCUUACUAGAAGGAUAGAGUGAUC [JL EXNG3 1.27] (Eterna round: R96, puzzle: Exclusion NG 3)
Input ligand: FMN 200 uM
  apparent KD of MS2 coat protein: 81.7 nM
[1]
  apparent KD of MS2 coat protein: 31.7 nM
Input ligand: none
  apparent KD of MS2 coat protein: 119 nM

## GUAGAGUAAGGAUAUACUGAAUAGGAUAGAAUGGUUAGAAAGUAGAAGGUACAUGAGGAUCACCCAUGUAAUGU [Excluse me!!!! 19 - Jieux - Exclusion 4] (Eterna round: R96, puzzle: Exclusion 4)
Input ligand: FMN 200 uM
  apparent KD of MS2 coat protein: 20.9 nM
[1]
  apparent KD of MS2 coat protein: 18.6 nM
Input ligand: none
  apparent KD of MS2 coat protein: 24 nM

## GUAGAGUAAGGAUAUACUGAAUAGGAUAGAAUGGUUAGAAAGUAGAAGGUACAUGAGGAUCACCCAUGUAAUGU [Excluse me!!!! 19 - Jieux - Exclusion 4] (puzzle: Exclusion 4)
[2]
  apparent KD of MS2 coat protein: 20.4 nM

## GUAGAGUCAGGAUAUACAAGAUCGAUAGAUCGGCGAUCCAUACAUGAGGAUCACCCAUGUAGAAGGGACUCUAC [Mat - Exclusion 2 - Eli Mod - D3] (Eterna round: R97, puzzle: Exclusion 2)
Input ligand: FMN 200 uM
  apparent KD of MS2 coat protein: 693 nM
Input ligand: none
  apparent KD of MS2 coat protein: 40.2 nM

## GUAGAGUCAGGAUAUACGAGAUCGAAAGAUCGGCGAUCCAUACAUGAGGAUCACCCAUGUAGAAGGGACUCUAC [ChP 11-04-2015 #5] (Eterna round: R96, puzzle: Exclusion 2)
Input ligand: FMN 200 uM
  apparent KD of MS2 coat protein: 177 nM
[1]
  apparent KD of MS2 coat protein: 14.8 nM
Input ligand: none
  apparent KD of MS2 coat protein: 19.1 nM

## GUAGAGUCAGGAUAUACGAGAUCGAAAGAUCGGCGAUCCAUACAUGAGGAUCACCCAUGUAGAAGGGACUCUAC [ChP 11-04-2015 #5] (puzzle: Exclusion 2)
[2]
  apparent KD of MS2 coat protein: 14.2 nM

## GUAGAGUGAGGAUAUACAAGAUCGAAAGAUCGGCGAUCCAUACAUGAGGAUCACCCAUGUAGAAGGCACUCUAC [Eli x2 4.007] (Eterna round: R97, puzzle: Exclusion 2)
Input ligand: FMN 200 uM
  apparent KD of MS2 coat protein: 678 nM
Input ligand: none
  apparent KD of MS2 coat protein: 102 nM

## GUAGGGUCAGGAUAUACGGGCGGGAGGAUGUAUUGUAGUUGGUAGAAGGGACAUGAGGAUCACCCAUGUGAGAA [JR_Exclu4_Sub054] (puzzle: Exclusion 4)
[2]
  apparent KD of MS2 coat protein: 31 nM

## GUAUGUAACUAGGAUAUCAGCAUACUUCAAUGUUGAGAAGGAGUUACAUGAGGAUCACCCAUGUAUCCAACAUG [Exclusion 6 - 3:b] (puzzle: Exclusion 6)
[3]
  apparent KD of MS2 coat protein: 43.4 nM
[2]
  apparent KD of MS2 coat protein: 52.5 nM
[4]
  apparent KD of MS2 coat protein: 69.1 nM

## GUCACAUGGGUAUAGGAUCACAUGAGGAUCACCCAUGUGACUAACAAGCUUUUUGCUCGUCUUAUGUCUAUGUGAAG [Stov1/18-A1] (Eterna round: R97, puzzle: Sensor, turn-off variant 1)
Input ligand: FMN 200 uM
  apparent KD of MS2 coat protein: 42.9 nM
Input ligand: none
  apparent KD of MS2 coat protein: 26.9 nM

## GUCACUAGAGGAUAUACAAUGGUAUAUGAUCCUAGAGACAAACAUGAGGAUCACCCAUGUAGAAGGCUAGUAAA [Exclusion 2 - 1] (puzzle: Exclusion 2)
[3]
  apparent KD of MS2 coat protein: 32.1 nM
[2]
  apparent KD of MS2 coat protein: 153 nM
[4]
  apparent KD of MS2 coat protein: 89.5 nM

## GUCAGACGAGGAUAUAGAUUUAAGUACAUGAGGAUCACCCAUGUGCAUAUGUAUUUAGAUUUAGAAGGCGUCUGAC [E5/18-A3] (Eterna round: R97, puzzle: Exclusion 5)
Input ligand: FMN 200 uM
  apparent KD of MS2 coat protein: 584 nM
Input ligand: none
  apparent KD of MS2 coat protein: 428 nM

## GUCAGCUCGUGAGGAUAUACAUGAUAGAUCGAUUAAUUAAUUAAUUUAACAUGAGGAUCACCCAUGUAGAAGGUACGAGCUGAC [ENG2/1-C1] (Eterna round: R96, puzzle: Exclusion NG 2)
[1]
  apparent KD of MS2 coat protein: 43.3 nM

## GUCAGCUCGUGAGGAUAUACAUGCGUGCUUCGGCACGUAUGAUAGAUCACAUGAGGAUCACCCAUGUAGAAGGUACGAGCUGAC [ENG2/4-C1] (Eterna round: R96, puzzle: Exclusion NG 2)
Input ligand: FMN 200 uM
  apparent KD of MS2 coat protein: 13.4 nM
[1]
  apparent KD of MS2 coat protein: 12.2 nM
Input ligand: none
  apparent KD of MS2 coat protein: 14.8 nM

## GUCAUACAUGAGGAUCACCCAUGUGAGGAUAUGAGUGGUGCUGCUAGGUAGUAUAGACUCAGAAGGCGCAUGAU [Malcxlusion 1 - Jieux - Exclusion 1] (Eterna round: R97, puzzle: Exclusion 1)
Input ligand: FMN 200 uM
  apparent KD of MS2 coat protein: 288 nM
Input ligand: none
  apparent KD of MS2 coat protein: 105 nM

## GUCAUACAUGAGGAUCACCCAUGUGAGGAUAUGGGCGGCGCCGCAAAAGCGGCGCCGCCCAGAAGGCGCAUGAU [Malcxlusion 5 - Jieux - Exclusion 1] (Eterna round: R97, puzzle: Exclusion 1)
Input ligand: FMN 200 uM
  apparent KD of MS2 coat protein: 195 nM
Input ligand: none
  apparent KD of MS2 coat protein: 71.5 nM

## GUCAUCAAACAUGGGAUCAACAUGAGGAUCACCCAUGUUGACAAGUUUUUUGCUCGUCUUAUAAUAAGUUUGAUGAC [Antenna 9 - Jieux - Sensor, turn-off variant 1] (Eterna round: R97, puzzle: Sensor, turn-off variant 1)
Input ligand: FMN 200 uM
  apparent KD of MS2 coat protein: 15.5 nM
Input ligand: none
  apparent KD of MS2 coat protein: 16.2 nM

## GUCAUCACACAUGGGAUCAACAUGAGGAUCACCCAUGUUGUCAAGUUUUUUGCUCGUCUUAUAAUACGUUUGAUGAC [Mod-Jxc] (Eterna round: R97, puzzle: Sensor, turn-off variant 1)
Input ligand: FMN 200 uM
  apparent KD of MS2 coat protein: 26.7 nM

## GUCCGGCAUGUAGGAUAUGGAUCCGAUUAGGAUUUAGAAGGACAUGAGGAUCACCCAUGUACAUUUAAUUAGUCAUUACCGGAC [EXclNG1-LROPPY03] (Eterna round: R96, puzzle: Exclusion NG 1)
Input ligand: FMN 200 uM
  apparent KD of MS2 coat protein: 14.6 nM
[1]
  apparent KD of MS2 coat protein: 9.47 nM
Input ligand: none
  apparent KD of MS2 coat protein: 14.9 nM

## GUCCUACAUGAGGAUCACCCAUGUGAGGAUAUGCGGUUAGCUGCUAGGUAGUUAGUAUGCAGAAGGCGCGUGAA [EX1 #80] (Eterna round: R97, puzzle: Exclusion 1)
Input ligand: FMN 200 uM
  apparent KD of MS2 coat protein: 15.9 nM
Input ligand: none
  apparent KD of MS2 coat protein: 14 nM
